To fix the notation:
B1: mono-Eu-labeled relaxin-3 agonist H3 relaxin B-chain, INSL5 A chain (H3/I5) [modified: mono-Eu label on the peptide; chain and site not stated] [not stated | human] / HA-tagged human RXFP3 (HA-RXFP3) [human] (parent complex)
chain 1: RAAPYGVRLCGREFIRAVIFTCGGSRW
chain 2: QDLQTLCCTDGCSMTDLSALC
chain 3: QMADAATIATMNKAAGGDKLAELFSLVPDLLEAANTSGNASLQLPDLWWELGLELPDGAPPGHPPGSGGAESADTEARVRILISVVYWVVCALGLAGNLLVLYLMKSMQGWRKSSINLFVTNLALTDFQFVLTLPFWAVENALDFKWPFGKAMCKIVSMVTSMNMYASVFFLTAMSVTRYHSVASALKSHRTRGHGRGDCCGRSLGDSCCFSAKALCVWIWALAALASLPSAIFSTTVKVMGEELCLVRFPDKLLGRDRQFWLGLYHSQKVLLGFVLPLGIIILCYLLLVRFIADRRAAGTKGGAAVAGGRPTGASARRLSKVTKSVTIVVLSFFLCWLPNQALTTWSILIKFNAVPFSQEYFLCQVYAFPVSVCLAHSNSCLNPVLYCLVRREFRKALKSLLWRIASPSITSMRPFTATTKPEHEDQGLQAPAPPHAAAEPDLLYYPPGVVVYSGGRYDLLPSSSAY

The test covers variants of B1. Briefly: Eu-H3/I5 binding on cells, normalized to cell surface expression; read off a plot.
chain 3 QMADAATIATMNKAAGGDKLAELFSLVPDLLEAANTSGNASLQLPDLWWELGLELPDGAPPGHPPGSGGAESADTEARVRILISVVYWVVCALGLAGNLLVLYLMKSMQGWRKSSINLFVTNLALTDFQFVLTLPFWAVANALAFKWPFGKAMCKIVSMVTSMNMYASVFFLTAMSVTRYHSVASALKSHRTRGHGRGDCCGRSLGDSCCFSAKALCVWIWALAALASLPSAIFSTTVKVMGEELCLVRFPDKLLGRDRQFWLGLYHSQKVLLGFVLPLGIIILCYLLLVRFIADRRAAGTKGGAAVAGGRPTGASARRLSKVTKSVTIVVLSFFLCWLPNQALTTWSILIKFNAVPFSQEYFLCQVYAFPVSVCLAHSNSCLNPVLYCLVRREFRKALKSLLWRIASPSITSMRPFTATTKPEHEDQGLQAPAPPHAAAEPDLLYYPPGVVVYSGGRYDLLPSSSAY [chain 3 E140A, chain 3 D144A]: the percent of parent is ~6 % of RXFP3 binding.
Turning to chain 3 QMADAATIATMNKAAGGDKLAELFSLVPDLLEAANTSGNASLQLPDLWWELGLELPDGAPPGHPPGSGGAESAATEARVRILISVVYWVVCALGLAGNLLVLYLMKSMQGWRKSSINLFVTNLALTDFQFVLTLPFWAVENALDFKWPFGKAMCKIVSMVTSMNMYASVFFLTAMSVTRYHSVASALKSHRTRGHGRGDCCGRSLGDSCCFSAKALCVWIWALAALASLPSAIFSTTVKVMGEELCLVRFPDKLLGRDRQFWLGLYHSQKVLLGFVLPLGIIILCYLLLVRFIADRRAAGTKGGAAVAGGRPTGASARRLSKVTKSVTIVVLSFFLCWLPNQALTTWSILIKFNAVPFSQEYFLCQVYAFPVSVCLAHSNSCLNPVLYCLVRREFRKALKSLLWRIASPSITSMRPFTATTKPEHEDQGLQAPAPPHAAAEPDLLYYPPGVVVYSGGRYDLLPSSSAY [chain 3 D74A], the percent of parent was ~81 % of RXFP3 binding.
Next, chain 3 QMADAATIATMNKAAGGDKLAELFSLVPDLLEAANTSGNASLQLPDLWWELGLELPDGAPPGHPPGSGGAASADTEARVRILISVVYWVVCALGLAGNLLVLYLMKSMQGWRKSSINLFVTNLALTDFQFVLTLPFWAVENALDFKWPFGKAMCKIVSMVTSMNMYASVFFLTAMSVTRYHSVASALKSHRTRGHGRGDCCGRSLGDSCCFSAKALCVWIWALAALASLPSAIFSTTVKVMGEELCLVRFPDKLLGRDRQFWLGLYHSQKVLLGFVLPLGIIILCYLLLVRFIADRRAAGTKGGAAVAGGRPTGASARRLSKVTKSVTIVVLSFFLCWLPNQALTTWSILIKFNAVPFSQEYFLCQVYAFPVSVCLAHSNSCLNPVLYCLVRREFRKALKSLLWRIASPSITSMRPFTATTKPEHEDQGLQAPAPPHAAAEPDLLYYPPGVVVYSGGRYDLLPSSSAY [chain 3 E71A]: ~110 % of RXFP3 binding; chain 3 QMADAATIATMNKAAGGDKLAELFSLVPDLLEAANTSGNASLQLPALWWALGLELPDGAPPGHPPGSGGAESADTEARVRILISVVYWVVCALGLAGNLLVLYLMKSMQGWRKSSINLFVTNLALTDFQFVLTLPFWAVENALDFKWPFGKAMCKIVSMVTSMNMYASVFFLTAMSVTRYHSVASALKSHRTRGHGRGDCCGRSLGDSCCFSAKALCVWIWALAALASLPSAIFSTTVKVMGEELCLVRFPDKLLGRDRQFWLGLYHSQKVLLGFVLPLGIIILCYLLLVRFIADRRAAGTKGGAAVAGGRPTGASARRLSKVTKSVTIVVLSFFLCWLPNQALTTWSILIKFNAVPFSQEYFLCQVYAFPVSVCLAHSNSCLNPVLYCLVRREFRKALKSLLWRIASPSITSMRPFTATTKPEHEDQGLQAPAPPHAAAEPDLLYYPPGVVVYSGGRYDLLPSSSAY [chain 3 D46A, chain 3 E50A]: ~99 % of RXFP3 binding.
In the case of chain 3 QMADAATIATMNKAAGGDKLAELFSLVPDLLEAANTSGNASLQLPDLWWELGLELPDGAPPGHPPGSGGAESADTEARVRILISVVYWVVCALGLAGNLLVLYLMKSMQGWRKSSINLFVTNLALTDFQFVLTLPFWAVANALDFKWPFGKAMCKIVSMVTSMNMYASVFFLTAMSVTRYHSVASALKSHRTRGHGRGDCCGRSLGDSCCFSAKALCVWIWALAALASLPSAIFSTTVKVMGEELCLVRFPDKLLGRDRQFWLGLYHSQKVLLGFVLPLGIIILCYLLLVRFIADRRAAGTKGGAAVAGGRPTGASARRLSKVTKSVTIVVLSFFLCWLPNQALTTWSILIKFNAVPFSQEYFLCQVYAFPVSVCLAHSNSCLNPVLYCLVRREFRKALKSLLWRIASPSITSMRPFTATTKPEHEDQGLQAPAPPHAAAEPDLLYYPPGVVVYSGGRYDLLPSSSAY [chain 3 E140A] it was ~5.5 % of RXFP3 binding; in that of chain 3 QMADAATIATMNKAAGGDKLAELFSLVPDLLEAANTSGNASLQLPDLWWELGLELPDGAPPGHPPGSGGAESADTEARVRILISVVYWVVCALGLAGNLLVLYLMKSMQGWRKSSINLFVTNLALTDFQFVLTLPFWAVENALAFKWPFGKAMCKIVSMVTSMNMYASVFFLTAMSVTRYHSVASALKSHRTRGHGRGDCCGRSLGDSCCFSAKALCVWIWALAALASLPSAIFSTTVKVMGEELCLVRFPDKLLGRDRQFWLGLYHSQKVLLGFVLPLGIIILCYLLLVRFIADRRAAGTKGGAAVAGGRPTGASARRLSKVTKSVTIVVLSFFLCWLPNQALTTWSILIKFNAVPFSQEYFLCQVYAFPVSVCLAHSNSCLNPVLYCLVRREFRKALKSLLWRIASPSITSMRPFTATTKPEHEDQGLQAPAPPHAAAEPDLLYYPPGVVVYSGGRYDLLPSSSAY [chain 3 D144A], ~9.5 % of RXFP3 binding.
Take chain 3 QMADAATIATMNKAAGGDKLAELFSLVPDLLEAANTSGNASLQLPDLWWELGLELPDGAPPGHPPGSGGAESADTEARVRILISVVYWVVCALGLAGNLLVLYLMKSMQGWRKSSINLFVTNLALTDFQFVLTLPFWAVENALDFKWPFGKAMCKIVSMVTSMNMYASVFFLTAMSVTRYHSVASALKSHRTRGHGRGDCCGRSLGDSCCFSAKALCVWIWALAALASLPSAIFSTTVKVMGAELCLVRFPDKLLGRDRQFWLGLYHSQKVLLGFVLPLGIIILCYLLLVRFIADRRAAGTKGGAAVAGGRPTGASARRLSKVTKSVTIVVLSFFLCWLPNQALTTWSILIKFNAVPFSQEYFLCQVYAFPVSVCLAHSNSCLNPVLYCLVRREFRKALKSLLWRIASPSITSMRPFTATTKPEHEDQGLQAPAPPHAAAEPDLLYYPPGVVVYSGGRYDLLPSSSAY [chain 3 E243A]: the percent of parent was ~15 % of RXFP3 binding.
On to chain 3 QMADAATIATMNKAAGGDKLAELFSLVPDLLEAANTSGNASLQLPDLWWELGLELPDGAPPGHPPGSGGAESADTEARVRILISVVYWVVCALGLAGNLLVLYLMKSMQGWRKSSINLFVTNLALTDFQFVLTLPFWAVENALDFKWPFGKAMCKIVSMVTSMNMYASVFFLTAMSVTRYHSVASALKSHRTRGHGRGDCCGRSLGDSCCFSAKALCVWIWALAALASLPSAIFSTTVKVMGEELCLVRFPAKLLGRDRQFWLGLYHSQKVLLGFVLPLGIIILCYLLLVRFIADRRAAGTKGGAAVAGGRPTGASARRLSKVTKSVTIVVLSFFLCWLPNQALTTWSILIKFNAVPFSQEYFLCQVYAFPVSVCLAHSNSCLNPVLYCLVRREFRKALKSLLWRIASPSITSMRPFTATTKPEHEDQGLQAPAPPHAAAEPDLLYYPPGVVVYSGGRYDLLPSSSAY [chain 3 D252A], for which the percent of parent was ~96 % of RXFP3 binding.
Turning to chain 3 QMADAATIATMNKAAGGDKLAELFSLVPDLLEAANTSGNASLQLPDLWWELGLELPDGAPPGHPPGSGGAESADTEARVRILISVVYWVVCALGLAGNLLVLYLMKSMQGWRKSSINLFVTNLALTDFQFVLTLPFWAVENALDFKWPFGKAMCKIVSMVTSMNMYASVFFLTAMSVTRYHSVASALKSHRTRGHGRGDCCGRSLGDSCCFSAKALCVWIWALAALASLPSAIFSTTVKVMGEELCLVRFPDKLLGRDRQFWLGLYHSQKVLLGFVLPLGIIILCYLLLVRFIADRRAAGTKGGAAVAGGRPTGASARRLSKVTKSVTIVVLSFFLCWLPNQALTTWSILIKFNAVPFSQAYFLCQVYAFPVSVCLAHSNSCLNPVLYCLVRREFRKALKSLLWRIASPSITSMRPFTATTKPEHEDQGLQAPAPPHAAAEPDLLYYPPGVVVYSGGRYDLLPSSSAY [chain 3 E361A], the percent of parent is ~77 % of RXFP3 binding.
Next, chain 3 QMADAATIATMNKAAGGDKLAELFSLVPDLLEAANTSGNASLQLPDLWWELGLALPAGAPPGHPPGSGGAESADTEARVRILISVVYWVVCALGLAGNLLVLYLMKSMQGWRKSSINLFVTNLALTDFQFVLTLPFWAVENALDFKWPFGKAMCKIVSMVTSMNMYASVFFLTAMSVTRYHSVASALKSHRTRGHGRGDCCGRSLGDSCCFSAKALCVWIWALAALASLPSAIFSTTVKVMGEELCLVRFPDKLLGRDRQFWLGLYHSQKVLLGFVLPLGIIILCYLLLVRFIADRRAAGTKGGAAVAGGRPTGASARRLSKVTKSVTIVVLSFFLCWLPNQALTTWSILIKFNAVPFSQEYFLCQVYAFPVSVCLAHSNSCLNPVLYCLVRREFRKALKSLLWRIASPSITSMRPFTATTKPEHEDQGLQAPAPPHAAAEPDLLYYPPGVVVYSGGRYDLLPSSSAY [chain 3 E54A, chain 3 D57A]: ~130 % of RXFP3 binding.
In the case of chain 3 QMADAATIATMNKAAGGDKLAELFSLVPDLLEAANTSGNASLQLPDLWWELGLELPDGAPPGHPPGSGGAESADTEARVRILISVVYWVVCALGLAGNLLVLYLMKSMQGWRKSSINLFVTNLALTDFQFVLTLPFWAVENALDFKWPFGKAMCKIVSMVTSMNMYASVFFLTAMSVTRYHSVASALKSHRTRGHGRGDCCGRSLGDSCCFSAKALCVWIWALAALASLPSAIFSTTVKVMGEELCLVRFPDKLLGRARQFWLGLYHSQKVLLGFVLPLGIIILCYLLLVRFIADRRAAGTKGGAAVAGGRPTGASARRLSKVTKSVTIVVLSFFLCWLPNQALTTWSILIKFNAVPFSQEYFLCQVYAFPVSVCLAHSNSCLNPVLYCLVRREFRKALKSLLWRIASPSITSMRPFTATTKPEHEDQGLQAPAPPHAAAEPDLLYYPPGVVVYSGGRYDLLPSSSAY [chain 3 D258A] it was ~79 % of RXFP3 binding.

(Values after paper PMC3579193, “Elucidation of relaxin-3 binding interactions in the extracellular loops of RXFP3” (Frontiers in Endocrinology, 2013).)
